Reference: PMC3526285

Tested on: TRMT10C (MRPP1, RG9MTD1) (Homo sapiens)
Assay: EMSA
Conditions: apparent Kd; EMSA: 1 nM 5'-labelled pre-tRNA, 10 nM-1.2 uM protein, methylation/processing buffer (composition not in material) + 100 mM sucrose, 30 min at room …

**Q.** For (mt)pre-tRNAHis, which Kd is on record?
**A.** 203 nM

**Q.** Which Kd does the source give for (mt)pre-tRNAIle here?
**A.** 255 nM
